Results reported in patent US20100166741A1 (Genentech, published 2010).

Legend:
[1] = target: T1, human BR3 on the cell surface (BJAB cells; primary human B cells) (human, UniProt Q96RJ3 1-184); assay: BJAB binding assay
T1 construct: whole, on cells; also called BAFF-R; cell surface BR3

[2] = target: T2, human BR3 extracellular domain (human, UniProt Q96RJ3 1-78); assay: BIAcore, BR3 ECD on chip, IgG in solution, 1:1 Langmuir model
T2 construct: extracellular domain; also called BR3 ECD; Br3 ECD WT

[3] = target: T3, human FcγRI extracellular domain, His-tagged GST fusion (human, UniProt P12314 16-292); assay: ELISA, captured FcγR-GST;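 also: antibody variants applied as dilution series to receptor wells, with retained antibody read out via an HRP-linked goat F(ab′)2 fragment recognizing human Fab′2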
T3 construct: extracellular domain; also called hFcgRI; FcγRIA; not shown: C-terminal Gly/His6/GST tag

[4] = target: T4, human FcγRIIb extracellular domain, His-tagged GST fusion (human, UniProt P31994 43-217); assay: ELISA, captured FcγR-GST;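 also: antibody variants applied as dilution series to receptor wells, with retained antibody read out via an HRP-linked goat F(ab′)2 fragment recognizing human Fab′2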
T4 construct: extracellular domain; also called hFcgRIIb; CD32B; not shown: C-terminal Gly/His6/GST tag
T4 sequence (looked up): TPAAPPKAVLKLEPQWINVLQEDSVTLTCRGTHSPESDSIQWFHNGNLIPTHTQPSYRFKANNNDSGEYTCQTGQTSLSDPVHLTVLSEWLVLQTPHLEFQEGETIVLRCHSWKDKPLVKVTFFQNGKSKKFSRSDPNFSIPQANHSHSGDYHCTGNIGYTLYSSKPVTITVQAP

[5] = target: T5, mouse FcγRI extracellular domain, His-tagged GST fusion (mouse, UniProt P26151 25-297); assay: ELISA, captured FcγR-GST;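 also: antibody variants applied as dilution series to receptor wells, with retained antibody read out via an HRP-linked goat F(ab′)2 fragment recognizing human Fab′2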
T5 construct: extracellular domain; also called Mouse I; mFcγRI; not shown: His tag and GST
T5 sequence (looked up): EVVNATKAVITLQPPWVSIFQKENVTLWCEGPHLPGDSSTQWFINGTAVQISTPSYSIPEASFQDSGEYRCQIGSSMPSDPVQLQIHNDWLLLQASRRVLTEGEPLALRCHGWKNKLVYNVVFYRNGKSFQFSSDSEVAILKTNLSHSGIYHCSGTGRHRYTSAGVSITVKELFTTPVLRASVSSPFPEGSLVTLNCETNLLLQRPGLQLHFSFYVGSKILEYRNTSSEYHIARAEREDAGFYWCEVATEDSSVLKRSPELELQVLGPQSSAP

[6] = target: T6, mouse FcγRII extracellular domain, His-tagged GST fusion (mouse, UniProt P08101 30-210); assay: ELISA, captured FcγR-GST;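 also: antibody variants applied as dilution series to receptor wells, with retained antibody read out via an HRP-linked goat F(ab′)2 fragment recognizing human Fab′2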
T6 construct: extracellular domain; also called Mouse II; not shown: His tag and GST
T6 sequence (looked up): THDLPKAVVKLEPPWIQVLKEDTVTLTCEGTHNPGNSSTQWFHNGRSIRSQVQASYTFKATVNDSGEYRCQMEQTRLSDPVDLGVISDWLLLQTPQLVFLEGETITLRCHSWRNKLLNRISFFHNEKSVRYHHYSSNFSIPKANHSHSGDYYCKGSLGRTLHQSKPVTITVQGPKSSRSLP

[7] = target: T7, human FcγRIIa extracellular domain, His-tagged GST fusion (human, UniProt P12318 34-217); assay: ELISA, captured FcγR-GST
T7 construct: extracellular domain; also called hFcgRIIa; CD32A; not shown: C-terminal Gly/His6/GST tag
T7 sequence (looked up): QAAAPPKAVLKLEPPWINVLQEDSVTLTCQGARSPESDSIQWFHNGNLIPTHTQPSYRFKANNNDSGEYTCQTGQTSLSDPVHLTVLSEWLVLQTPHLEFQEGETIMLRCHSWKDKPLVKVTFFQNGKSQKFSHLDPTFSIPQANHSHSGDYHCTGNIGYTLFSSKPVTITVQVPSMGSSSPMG

[8] = target: T8, mouse FcγRIII extracellular domain, His-tagged GST fusion (mouse, UniProt P08508 31-215); assay: ELISA, captured FcγR-GST
T8 construct: extracellular domain; also called Mouse III; not shown: His tag and GST
T8 sequence (looked up): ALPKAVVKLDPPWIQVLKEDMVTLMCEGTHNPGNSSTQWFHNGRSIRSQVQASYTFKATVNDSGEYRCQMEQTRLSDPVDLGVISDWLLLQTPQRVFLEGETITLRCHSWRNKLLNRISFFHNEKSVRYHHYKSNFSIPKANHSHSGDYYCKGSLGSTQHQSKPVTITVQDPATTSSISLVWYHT

[9] = target: T2, human BR3 extracellular domain; assay: BIAcore, BR3 ECD on chip, IgG in solution, bivalent analyte model
[10] = target: T1, human BR3 on the cell surface (BJAB …); assay: competition with 25 nM FLAG-BAFF on BJAB cells
[11] = target: T3, human FcγRI extracellular domain, …; assay: ELISA, FcγR-His-GST captured by anti-GST
[12] = target: T1, human BR3 on the cell surface (BJAB …); assay: direct binding to BJAB cells, anti-human IgG Fc-HRP
[13] = target: T2, human BR3 extracellular domain; assay: BIAcore, IgG on chip, BR3 ECD in solution, 1:1 Langmuir model
[14] = target: T4, human FcγRIIb extracellular domain, …; assay: ELISA, FcγR-His-GST captured by anti-GST, complexed IgG
[15] = target: T7, human FcγRIIa extracellular domain, …; assay: as above
[16] = target: human FcγRIII (CD16) on NK cells (human, UniProt P08637 17-254); assay: cell-based or functional assay
[17] = target: T3, human FcγRI extracellular domain, …; assay: Fcγ receptor ELISA; bar = fold change in binding relative to Herceptin (EC50 Herceptin/EC50 sample), log axis 0.1-100
[18] = target: T5, mouse FcγRI extracellular domain, …; assay: as above
[19] = target: T6, mouse FcγRII extracellular domain, …; assay: as above
[20] = target: T9, human FcγRIIIa (F158) extracellular domain, His-tagged GST fusion (human, UniProt P08637 17-208); assay: as above
T9 construct: extracellular domain; also called hFcgRIII (F158); FcγRIII (F158 allele); not shown: C-terminal Gly/His6/GST tag

[21] = target: T8, mouse FcγRIII extracellular domain, …; assay: as above

Row | Binder | binding result [1] | Kd [2] | koff [2] | kon [2] | Kd [9] | koff [9] | kon [9] | IC50 [10] | EC50 [12] | Kd [13] | koff [13] | kon [13] | further results
1 | Hu9.1RF IgG1 (antibody, Humanized IgG1 with normal (fucosylated) glycans; also called WT; WT(9.1RF)) heavy: not shown light: DIQMTQSPSSLSASVGDRVTITCKSSQSLLYSSNQNNYLAWYQQKPGKAPKLLIYWASTRESGVPSRFSGSGSGTDFTLTISSLQPEDFATYYCQQYYTYPYTFGQGTKVEIKRTVAAPSVFIFPPSDEQLKSGTASVVCLLNNFYPREAKVQWKVDNALQSGNSQESVTEQDSKDSTYSLSSTLTLSKADYEKHKVYACEVTHQGLSSPVTKSFNRGEC |  | 0.03 nM | 5.21e-05 s⁻¹ | 1.99e+06 M⁻¹ s⁻¹ | 0.52 nM | 0.000339 s⁻¹ | 658000 M⁻¹ s⁻¹ | 8.8 nM | 0.92 nM | 0.25 nM | 0.000253 s⁻¹ | 995000 M⁻¹ s⁻¹ | fold improvement in binding vs Herceptin (EC50herceptin/EC50sample) [3]: 1 fold; fold improvement in binding vs Herceptin (EC50herceptin/EC50sample) [4]: 0.7 fold; fold improvement in binding vs Herceptin (EC50herceptin/EC50sample) [5]: 1.2 fold; fold improvement in binding vs Herceptin (EC50herceptin/EC50sample) [6]: 0.7 fold; fold improvement in binding vs Herceptin (EC50herceptin/EC50sample) [7]: 2.3 fold; fold improvement in binding vs Herceptin (EC50herceptin/EC50sample) [8]: 0.8 fold; binding relative to 9.1-RF [11]: 1; binding relative to 9.1-RF [14]: 1; binding relative to 9.1-RF [15]: 1
2 | afucosylated Hu9.1RF IgG1 (antibody, N-linked Fc carbohydrate lacks fucose (made in a cell line lacking fucosyltransferase; 100% afucosylated by paragraph 557), also called AF Hu9.1RF IgG1; Hu9.1RF IgG1 AF) heavy: not shown light: DIQMTQSPSSLSASVGDRVTITCKSSQSLLYSSNQNNYLAWYQQKPGKAPKLLIYWASTRESGVPSRFSGSGSGTDFTLTISSLQPEDFATYYCQQYYTYPYTFGQGTKVEIKRTVAAPSVFIFPPSDEQLKSGTASVVCLLNNFYPREAKVQWKVDNALQSGNSQESVTEQDSKDSTYSLSSTLTLSKADYEKHKVYACEVTHQGLSSPVTKSFNRGEC |  | 0.04 nM | 5.41e-05 s⁻¹ | 1.49e+06 M⁻¹ s⁻¹ | 0.28 nM | 0.000149 s⁻¹ | 532000 M⁻¹ s⁻¹ | 3.6 nM | 0.49 nM | 0.23 nM | 0.000199 s⁻¹ | 852000 M⁻¹ s⁻¹ | ADCC EC50 on BJAB cells with NK cells, improvement over 2% afucosylated Hu9.1RF IgG1 [16]: > 6 fold; ADCC percent cytotoxicity on BJAB cells with NK cells, increase over 2% afucosylated Hu9.1RF IgG1 [16]: > 3 fold
3 | V3(5) (antibody, human IgG1, kappa, also called V3-46s S298A/K326A/E333A/K334A) heavy chain: EVQLVESGGGLVQPGGSLRLSCAASGFTISSSSIHWVRQAPGKGLEWVAWVLPSVGFTDYADSVKGRFTISADTSKNTAYLQMNSLRAEDTAVYYCARRVCYNRLGVCAGGMDYWGQGTLVTVSSASTKGPSVFPLAPSSKSTSGGTAALGCLVKDYFPEPVTVSWNSGALTSGVHTFPAVLQSSGLYSLSSVVTVPSSSLGTQTYICNVNHKPSNTKVDKKVEPKSCDKTHTCPPCPAPELLGGPSVFLFPPKPKDTLMISRTPEVTCVVVDVSHEDPEVKFNWYVDGVEVHNAKTKPREEQYNATYRVVSVLTVLHQDWLNGKEYKCKVSNAALPAPIAATISKAKGQPREPQVYTLPPSREEMTKNQVSLTCLVKGFYPSDIAVEWESNGQPENNYKTTPPVLDSDGSFFLYSKLTVDKSRWQQGNVFSCSVMHEALHNHYTQKSLSLSPG light chain: DIQMTQSPSSLSASVGDRVTITCRASQDVSTAVAWYQQKPGKAPKLLIYSASFLYSGVPSRFSGSGSGTDFTLTISSLQPEDFATYYCQQSQISPPTFGQGTKVEIKRTVAAPSVFIFPPSDEQLKSGTASVVCLLNNFYPREAKVQWKVDNALQSGNSQESVTEQDSKDSTYSLSSTLTLSKADYEKHKVYACEVTHQGLSSPVTKSFNRGEC |  |  |  |  |  |  |  |  |  |  |  |  | binding result [17]: binds; binding result [18]: binds; binding result [19]: binds; binding result [20]: binds; binding result [21]: binds

Second part, led by results:

Row | binding result [1] | Kd [2] | koff [2] | kon [2] | Kd [9] | koff [9] | kon [9] | IC50 [10] | EC50 [12] | Kd [13] | koff [13] | kon [13] | Binder | further results
4 | binds |  |  |  |  |  |  |  |  |  |  |  | V3-1m (antibody, mouse IgG2a, V domains shown, also called mV3-1) VH: EVQLVESGGGLVQPGGSLRLSCAASGFTISSNSIHWVRQAPGKGLEWVAWITPSDGNTDYADSVKGRFTISADTSKNTAYLQMNSLRAEDTAVYYCARRVCYNRLGVCAGGMDYWGQGTLVTVSS VL: DIQMTQSPSSLSASVGDRVTITCRASQDVSTAVAWYQQKPGKAPKLLIYSASFLYSGVPSRFSGSGSGTDFTLTISSLQPEDFATYYCQQSRITPPTFGQGTKVEIKR | 
5 | binds |  |  |  |  |  |  |  |  |  |  |  | V3-1h (antibody, human IgG1, V domains shown) VH: EVQLVESGGGLVQPGGSLRLSCAASGFTISSNSIHWVRQAPGKGLEWVAWITPSDGNTDYADSVKGRFTISADTSKNTAYLQMNSLRAEDTAVYYCARRVCYNRLGVCAGGMDYWGQGTLVTVSS VL: DIQMTQSPSSLSASVGDRVTITCRASQDVSTAVAWYQQKPGKAPKLLIYSASFLYSGVPSRFSGSGSGTDFTLTISSLQPEDFATYYCQQSRITPPTFGQGTKVEIKR | 
